Data on one molecule can be found in article PMC4031664 (Prion, 2013).

This assay has as its target T1, tandem OR repeats of mouse PrP (Mus musculus).
T1 chain: PHGGSWGQPHGGSWGQ
The assay can be described thus: crystal structure.

B1: Fab fragment of the monoclonal POM2 IgG (Fab, V domains shown)
VH: VKLQESGGEVVRPGTSVKVSCKASGYAFTNYLIEWVKQRPGQGLEWIGVINPGSGDTNYNEKFKGKATLTADKSSSTAYMQLNSLTSDDSAVYFCARSGAAAPTYYAMDYWGQGVSVTVSS
VL: DIVMTQSHKFMSTSVGDRVSITCKASQVGTALAWYQQKPGQSPKLLIYWASTRHTGVPDRFTGSGSGTDFTLTISNVQSEDLSDYFCQQYSSYPTFGGGTKLEIK
Regarding B1, the binding result is on record as “binds”.
